Columns and labels:
Conditions in all cases: both partners purified
GABARAPL1 [1] = biological target: T1, GABARAPL1 (mouse, UniProt Q8R3R8 1-117); test: ITC; VP-ITC at 25 °C; 50 mM Tris pH 7.8, 100 mM NaCl, 1 mM EDTA, 1 mM DTT; γ2 subunit protein or peptide (100-200 μM) injected into GABARAP, GABARAPL1 or AP2 (10-20 μM) in the cell; one-site binding model
T1 construct: GABARAPL1, mouse, UniProt Q8R3R8; also called GABARAPL1 WT; source: E. coli BL21 (DE3), purified (nickel-NTA, size exclusion)

[2] = biological target: T2, GABAA receptor-associated protein (GABARAP) (mouse, UniProt Q9DCD6 1-117); test: as above
T2 construct: GABARAP, mouse, UniProt Q9DCD6; also called GABARAP WT; source: E. coli BL21 (DE3), purified (nickel-NTA, size exclusion)

[3] = biological target: T3, GABAAR-associated protein (GABARAP) (mouse, UniProt Q9DCD6 1-117); test: ITC; VP-ITC, 25 °C; 50 mM Tris pH 7.8, 100 mM NaCl, 1 mM EDTA, 1 mM DTT; γ2 subunit protein or peptide (100–200 μM) injected into GABARAP, GABARAPL1 or AP2 (10–20 μM) in the cell; one-site binding model
T3 construct: GABARAP, mouse, UniProt Q9DCD6; the thioredoxin-His6 tag was removed 'when needed'; also called GABARAP WT; source: E. coli BL21 (DE3), purified (nickel-NTA, size exclusion)

[4] = biological target: T4, clathrin adaptor protein AP2 (AP2 μ1 subunit as printed) (rat, UniProt P84092 1-435); test: as above
T4 construct: AP2 μ subunit (printed 'AP2 μ1 subunit'), rat, UniProt P84092; the full-length gene was amplified and shorter fragments were generated; Only the μ subunit is named as cloned; the text calls the protein 'AP2'; source: E. coli BL21 (DE3), purified (nickel-NTA, size exclusion)
T4 sequence (looked up): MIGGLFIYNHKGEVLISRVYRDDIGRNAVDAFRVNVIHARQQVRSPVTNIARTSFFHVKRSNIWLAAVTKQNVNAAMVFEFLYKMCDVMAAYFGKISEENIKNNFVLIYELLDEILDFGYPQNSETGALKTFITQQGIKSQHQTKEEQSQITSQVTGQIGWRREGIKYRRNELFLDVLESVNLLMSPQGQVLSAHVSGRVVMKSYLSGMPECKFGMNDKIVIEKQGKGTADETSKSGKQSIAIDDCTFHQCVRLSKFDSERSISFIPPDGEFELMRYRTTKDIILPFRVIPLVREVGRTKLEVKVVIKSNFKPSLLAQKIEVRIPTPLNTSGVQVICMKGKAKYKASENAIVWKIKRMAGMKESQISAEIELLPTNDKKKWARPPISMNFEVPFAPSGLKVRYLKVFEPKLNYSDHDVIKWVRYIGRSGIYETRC

[5] = biological target: T2, GABAA receptor-associated protein …; test: ITC; VP-ITC at 25 °C; 50 mM Tris pH 7.8, 100 mM NaCl, 1 mM EDTA, 1 mM DTT; γ2 subunit protein or peptide (100-200 μM) injected into GABARAP, GABARAPL1 or AP2 (10-20 μM) in the cell; one-site binding model; remark: listed apart in the source
[6] = biological target: T5, clathrin adaptor protein AP2 (AP2 μ1 subunit) (rat, UniProt P84092 158-435); test: as above
T5 construct: AP2 μ1 subunit as printed, rat, UniProt P84092; the limits rest on the primer list; also called AP2 WT; source: E. coli BL21 (DE3), purified (nickel-NTA, size exclusion)
T5 sequence (looked up): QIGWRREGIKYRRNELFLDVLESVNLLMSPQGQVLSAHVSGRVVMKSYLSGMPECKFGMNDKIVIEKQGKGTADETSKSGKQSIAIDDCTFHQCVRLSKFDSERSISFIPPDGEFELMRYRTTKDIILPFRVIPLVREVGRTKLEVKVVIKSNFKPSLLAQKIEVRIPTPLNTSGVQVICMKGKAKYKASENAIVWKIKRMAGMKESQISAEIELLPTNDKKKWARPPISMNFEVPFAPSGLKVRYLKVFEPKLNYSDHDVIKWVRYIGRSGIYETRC

[7] = biological target: T3, GABAAR-associated protein (GABARAP); test: ITC; giant ankyrin peptides and GABARAP, compared against γ2-GIM
GABARAPL1 [8] = biological target: T6, GABARAPL1 (mouse, UniProt Q8R3R8 1-117); test: ITC; VP-ITC, 25 °C; 50 mM Tris pH 7.8, 100 mM NaCl, 1 mM EDTA, 1 mM DTT; γ2 subunit protein or peptide (100–200 μM) injected into GABARAP, GABARAPL1 or AP2 (10–20 μM) in the cell; one-site binding model
T6 construct: GABARAPL1, mouse, UniProt Q8R3R8; source: E. coli BL21 (DE3), purified (nickel-NTA, size exclusion)

GABARAP E17A = biological target: T7, GABARAP E17A (mouse, UniProt Q9DCD6 1-117, E17A); test: as above
T7 construct: GABARAP, mouse, UniProt Q9DCD6, E17A; source: E. coli BL21 (DE3), purified (nickel-NTA, size exclusion)

GABARAP K66E = biological target: T8, GABARAP K66E (mouse, UniProt Q9DCD6 1-117, K66E); test: as above
T8 construct: GABARAP, mouse, UniProt Q9DCD6, K66E; source: E. coli BL21 (DE3), purified (nickel-NTA, size exclusion)
T8 sequence (Q9DCD6 whole entry K66E): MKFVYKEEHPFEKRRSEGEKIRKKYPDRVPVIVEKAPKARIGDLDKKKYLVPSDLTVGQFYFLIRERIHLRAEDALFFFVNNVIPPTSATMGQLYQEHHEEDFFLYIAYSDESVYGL

T2 sequence (Q9DCD6 whole entry): as the sequence (Q9DCD6 whole entry K66E) above, with E66K counted along it
T3 sequence (Q9DCD6 whole entry): as the sequence (Q9DCD6 whole entry K66E) above, with E66K counted along it
T7 sequence (Q9DCD6 whole entry E17A): as the sequence (Q9DCD6 whole entry K66E) above, with E17A, E66K counted along it

B1: GABAA receptor γ2 subunit GIM (GABARAP interacting motif, 398-415) (peptide)
chain: ERDEEYGYECLDGKDCAS
notes: also called γ2-GIM; source: E. coli BL21 (DE3), purified (nickel-NTA, size exclusion)
For B1, the Kd (GABARAPL1 [1]) was 5.7 µM and the “stoichiometry N” value (GABARAPL1 [1]) was 1.23.

B2: GABAA receptor γ2 subunit 404-442 (domain or fragment, mouse)
chain: GYECLDGKDCASFFCCFEDCRTGAWRHGRIHIRIAKMDS
notes: GABAA receptor γ2 subunit, mouse, UniProt P22723-2, residues 404-442; also called GABAA receptor γ2 404-442; source: E. coli BL21 (DE3), purified (nickel-NTA, size exclusion)
In the case of B2, the Kd [2] is reported as 30 µM and the “stoichiometry N” value [2] is reported as 0.55.

B3: GABAA receptor γ2 subunit 375-442 (full length TM3-TM4 ICD) (domain or fragment, mouse, UniProt P22723-2 375-442, looked up)
chain: PAPTIDIRPRSATIQMNNATHLQERDEEYGYECLDGKDCASFFCCFEDCRTGAWRHGRIHIRIAKMDS
notes: GABAA receptor γ2 subunit, mouse, UniProt P22723-2, residues 375-442 (TM3-TM4 intracellular domain); also called GABAA receptor γ2 375-442; source: E. coli BL21 (DE3), purified (nickel-NTA, size exclusion)
In the case of B3, the “stoichiometry N” value [2] is reported as 0.53.

B4: full length TM3–TM4 ICD (residues 375–442) of the GABAA receptor γ2 subunit (domain or fragment, mouse, UniProt P22723-2 375-442, looked up)
chain: PAPTIDIRPRSATIQMNNATHLQERDEEYGYECLDGKDCASFFCCFEDCRTGAWRHGRIHIRIAKMDS
notes: GABAA receptor γ2 subunit, mouse, UniProt P22723-2, residues 375-442; also called TM3–TM4 intracellular loop; source: E. coli BL21 (DE3), purified (nickel-NTA, size exclusion)
B4 gave a Kd [3] of ~8 µM.

B5: γ2-GIM Y403E variant (phosphomimic mutation) (peptide, UniProt P22723-2 398-415, looked up)
chain: ERDEEEGYECLDGKDCAS
notes: source: E. coli BL21 (DE3), purified (nickel-NTA, size exclusion)
For B5, the “fold increase of affinity against γ2-GIM WT” value [3] was ~5 fold and the “fold decrease of affinity against γ2-GIM WT” value [4] was ~10 fold.

B6: GABAA receptor γ2-GIM Y403E (peptide, UniProt P22723-2 398-415, looked up)
chain: ERDEEEGYECLDGKDCAS
notes: as for B5
For B6, the Kd [5] was 1 ± 0.1 µM and the Kd [6] was 2.46 ± 0.22 µM.

B7: GABAA receptor γ2-GIM E406R (peptide, UniProt P22723-2 398-415, looked up)
chain: ERDEEYGYRCLDGKDCAS
notes: as for B5
Binder B7 has a Kd [6] of 0.69 ± 0.06 µM.

B8: GABAA receptor γ2 subunit 398-424 (domain or fragment, mouse)
chain: ERDEEYGYECLDGKDCASFFCCFEDCR
notes: as for B5
In the case of B8, the Kd [2] is reported as 5 µM and the “stoichiometry N” value [2] is reported as 0.92.

B9: AnkG-ER peptide (peptide)
peptide: PEDDWTRFSSEEIREARQAAASHAPS
With B9 the “fold stronger affinity for GABARAP than γ2-GIM” value [7] was ~1000 fold.

B10: GABAA receptor γ2-GIM E402T (peptide, UniProt P22723-2 398-415, looked up)
chain: ERDETYGYECLDGKDCAS
notes: as for B5
Work on B10 yielded a Kd [6] of 0.56 ± 0.02 µM.

B11: γ2-GIM E402T variant (peptide, UniProt P22723-2 398-415, looked up)
chain: ERDETYGYECLDGKDCAS
notes: as for B5
B11 gave a Kd [3] of 8.4 µM.

B12: GABAA receptor γ2-GIM L408Q (peptide, UniProt P22723-2 398-415, looked up)
chain: ERDEEYGYECQDGKDCAS
notes: as for B5
For B12, the Kd [6] was > 50 µM.

B13: GABAAR γ2 subunit GIM (GABARAP interacting motif, 398–415) (peptide, UniProt P22723-2 398-415, looked up)
chain: ERDEEYGYECLDGKDCAS
notes: as for B1
For B13, the Kd (GABARAPL1 [8]) was ~6.6 µM, the binding result (GABARAP E17A) was “binds” and the “fold weakening against GABARAP WT” value (GABARAP K66E) was ~4 fold.

B14: GABAA receptor γ2 subunit 375-424 (domain or fragment, mouse, UniProt P22723-2 375-424, looked up)
chain: PAPTIDIRPRSATIQMNNATHLQERDEEYGYECLDGKDCASFFCCFEDCR
notes: as for B5
With B14 the “stoichiometry N” value [2] was 0.92.
